Measured values taken from FireProtDB (doi:10.1006/jmbi.2001.4521).

B1: Growth factor receptor-bound protein 2, Q08012 (parent)
chain: MEAIAKHDFSATADDELSFRKTQILKILNMEDDSNWYRAELDGKEGLIPSNYIEMKNHDWYYGRITRADAEKLLSNKHEGAFLIRISESSPGDFSLSVKCPDGVQHFKVLRDAQSKFFLWVVKFNSLNELVEYHRTASVSRSQDVKLRDMIPEEMLVQALYDFVPQESGELDFRRGDVITVTDRSDENWWNGEIGNRKGIFPATYVTPYHS

Variants of: B1
Settings: Drosophila melanogaster, pH 6, Thermal, CD, phosphate 50 mM, Na2SO4 0.4 M, structure 2A36, whole UniProt chain shown; for unfolding free energy: 25 °C

Variant | Tm [°C] | change of melting temperature, mutant - wild type (higher = more stable) [°C] | unfolding free energy [kcal/mol]
T22G Q23D | 88.9 | 25.2 | –
T22L | 58 | -5.7 | –
T22A | 66.9 | 3.2 | 2.2
T22S | 63.5 | -0.2 | 2.4
T22G | 84.8 | 21.1 | 4.2
T22F | 66.7 | 3 | 3.1
T22K | 65 | 1.3 | 1.8
T22D | 73.1 | 9.4 | 3.3
T22N | – | – | 3.1
